# “Also recorded” adds a separate entry of the source.
# What was measured:
# [1] = Temperature curve of NicA2; assay type: biochemical; conditions: HEPES buffer, 20-95° C.
# Protocol: 100 μL of each solution was mixed, incubated, quenched and then analyzed as detailed, vide supra.
# The effect of higher temperatures on the enzyme's stability was also examined.
# [2] = NicA2 stability assay in HEPES buffer at 37° C.; conditions: HEPES buffer pH=7.4
# Protocol: Four μM nicotine and 40 nM NicA2 were prepared in HEPES buffer and stored at 37° C. Upon sitting for 0, 1, 3, 4, 5, 8, 12, 16, 20, or 25 days, 100 μL of each solution was extracted, mixed, incubated, quenched, analyzed as detailed, vide supra.
# To test for these metrics, NicA2 was incubated at 37° C. in HEPES buffer and enzyme activity was examined at different time points.
# [3] = NicA2 co-factor assay (FAD or FMN); assay type: biochemical; conditions: 40 μM FMN or FAD, room temperature
# Protocol: An FAD or FMN stock solution was added to nicotine HEPES solution to obtain 80 μM FAD or FMN mixed with 4 μM nicotine. 100 μL each sample was mixed with
# 100 μL 40 nM NicA2 and incubated at room temperature for 20 min. An additional sample without FAD or FMN was prepared at the same time as the control. The samples were analyzed as described above.
# [4] = In vivo testing of NicA2: blood and brain nicotine levels in rats; design: species or system rat
# Protocol: Rats were used for in vivo testing because their nicotine metabolism is generally similar to that of humans with regard to rate and range of metabolites. 30 female, 250 g Sprague Dawley rats were pretreated with varying amounts of NicA2 intravenously as noted in Table B below.
# After administration of NicA2 (generally over 5 minutes), nicotine (0.03 mg/kg) was administered intravenously. At 5 minutes, the rats were sacrificed under isoflurane anesthesia and 1 ml blood samples were collected with 0.32 ml heparin. 0.5 ml of each blood sample was added to a tube containing ice cold 2 ml methanol (to quench NicA2 activity) and the contents were rapidly mixed. Another 0.5 ml of each blood sample was added to a tube containing ice cold 2 ml of methanol (to quench NicA2 activity) and deuterium labeled D4-nicotine, and the contents were rapidly mixed. The brains were collected and frozen at −20° C. Measurements were made in accordance with Keyler et al., International Pharmacology 2008, 8, […], and, Hieda et al., Psychopharmacology, 1999, 143(2), 150-157.
# [5] = NicA2 PK study in mice (ELISA of serum); assay type: in vivo, mouse
# Protocol: Purified His-tagged NicA2 was conjugated to 20 kDa PEG and subsequently purified by HPLC. […] The fusion protein was expressed in E. coli and purified as described above for NicA2.
# His-tagged NicA2, NicA2-PEG or NicA2-ABD was dosed intravenously in mice at 5 mg/kg. Blood sampling was done at pre-dose and then over a 5 min-72 h period (three animals per time-point) and processed to serum.
# Assay of serum samples was done taking advantage of the C-terminal His-tag on the test articles. MaxiSorp ELISA plates (Nunc) were coated overnight with anti-His×6 antibody (purchased from R&D Systems). Plates were blocked with 4% dry milk (purchased from Bio-Rad) in PBS. Dilutions of standard and serum samples in 2% milk in PBS+0.1% Tween-20 were added to the plates, and incubated for 1 hour at room temperature. After washing away unbound substances (all wash steps performed in PBS+0.1% Tween-20), rabbit anti-NicA2 polyclonal primary detection antibody (purchased from Noble Life Sciences, Inc.) was added to the wells for a 1 hour incubation. […] Plates were washed, and the remaining binding complex was detected with TMB substrate (3,3′,5,5′-tetramethylbenzidine; KPL). Once stopped with acid, plates were read on a spectrophotometer at 450 nm and data analyzed in SoftMax® Pro, version 6.5.1 (purchased from Molecular Devices). […]
molecule,measurement,setting,value
"NicA2: flavin-containing nicotine-degrading enzyme of Pseudomonas putida S16, amino acid sequence SEQ ID NO:1 (protein, His tag) MSDKTKTNEGFSRRSFIGSAAVVTAGVAGLGAIDAASATQKTNRASTVKGGFDYDVVVVGGGFAGATAARECGLQGYRTLLLEARSRLGGRTFTSRFAGQEIEFGGAWVHWLQPHVWAEMQRYGLGVVEDPLTNLDKTLIMYNDGSVESISPDEFGKNIRIAFEKLCHDAWEVFPRPHEPMFTERARELDKSSVLDRIKTLGLSRLQQAQINSYMALYAGETTDKFGLPGVLKLFACGGWNYDAFMDTETHYRIQGGTIGLINAMLTDSGAEVRMSVPVTAVEQVNGGVKIKTDDDEIITAGVVVMTVPLNTYKHIGFTPALSKGKQRFIKEGQLSKGAKLYVHVKQNLGRVFAFADEQQPLNWVQTHDYSDELGTILSITIARKETIDVNDRDAVTREVQKMFPGVEVLGTAAYDWTADPFSLGAWAAYGVGQLSRLKDLQAAEGRILFAGAETSNGWHANIDGAVESGLRAGREVKQLLS",optimum temperature,[1],70 °C
same,stability and activity in HEPES buffer,[2],≥ 3 weeks
same,v0 over the duration of the study,[2],remained virtually constant
same,effect of added FMN or FAD on NicA2 activity,[3],no change in NicA2 activity; also recorded: did not affect the activity
same,brain nicotine levels,"[4]; 4 out of the 5 animals, 5 min after 0.03 mg/kg i.v. nicotine",< 2 ng/mL
same,blood and brain levels of nicotine,"[4]; rats, 5 minutes after 0.03 mg/kg i.v. nicotine, n=5",below the limit of quantitation
same,reduction in nicotine blood levels,"[4]; rats, highest NicA2 dose (9.72 mg/kg i.v.), 5 min after 0.03 mg/kg i.v. nicotine, compared to controls",> 95%
same,half-life in vivo,"[5]; in vivo in mammals, due to renal clearance",3 to 4 h
same,Half-life,"[5]; mice, 5 mg/kg intravenously, serum",3.7 h
